Test results published in PMC10375191, “Transformable Neuropeptide Prodrug with Tumor Microenvironment Responsiveness for Tumor Growth and Metastasis Inhibition of Triple‐Negative Breast Cancer” (Advanced Science, 2023).
Starred links: 1 amine or outer side, 2 acyl side, 3 side chain; linkers in the order of their positions; H or OH if unused. Residues, ends and D or L forms follow the SMILES beside them. *: point of attachment. Doxorubicin(3'-N) = COc1cccc2c1C(=O)c1c(O)c3c(c(O)c1C2=O)C[C@@](O)(C(=O)CO)C[C@@H]3O[C@H]1C[C@H](N*)[C@H](O)[C@H](C)O1; Suc = O=C(CCC(=O)[*:2])[*:1]

Legend:
[1] = Pharmacokinetics in plasma; format: in vivo, mouse; details: ICR female mice, 10 mg kg^−1 DOX content i.v.
Procedure: The drug contents were quantified by HPLC (1260 Infinity II, Agilent, USA) as described in the methods of characterization in Supporting Information and the pharmacokinetic parameters were analyzed using the Phoenix WinNonlin 8.3.5 software.

MCF‐7 cells = experiment: CCK-8 cell viability assay, MCF-7; format: cell-based, human; details: MCF-7, 24 h
Procedure: MDA‐MB‐231 cells were incubated in 96‐well plates for 24 h (1 × 10^4 cells per well). […] At the appointed time, 10 µL CCK‐8 solution was dropped into each well and further co‐incubated with treated cells for 2 h. The absorbance values at 450 nm were measured by an automated plate reader (iMark (168‐1130), Biorad, USA). The IC50 values were obtained from Microsoft Excel's FORECAST formula.
breast cancer cell line MCF-7 after 24 h incubation. Data are presented as means ±
standard deviations (n = 3).
(1 picture or pasted object on this page, not shown here)

[2] = target: T1, matrix metalloproteinase‐2 (MMP‐2) (Homo sapiens, UniProt P08253); experiment: MMPs-responsive cleavage of DOX-P18 by MMP-2 (HPLC, MS, fluorescence); format: in vitro ADME; details: 1 mg mL^−1 DOX-P18 with 1 µg mL^−1 MMP-2, 37 °C; HPLC at 6, 12, 24, 72 h, monitored at 500 nm; product DOX-P3 identified by MS
T1 construct: purchased Novoprotein Scientific Inc. (Shanghai, China)
T1 sequence (P08253 110-660): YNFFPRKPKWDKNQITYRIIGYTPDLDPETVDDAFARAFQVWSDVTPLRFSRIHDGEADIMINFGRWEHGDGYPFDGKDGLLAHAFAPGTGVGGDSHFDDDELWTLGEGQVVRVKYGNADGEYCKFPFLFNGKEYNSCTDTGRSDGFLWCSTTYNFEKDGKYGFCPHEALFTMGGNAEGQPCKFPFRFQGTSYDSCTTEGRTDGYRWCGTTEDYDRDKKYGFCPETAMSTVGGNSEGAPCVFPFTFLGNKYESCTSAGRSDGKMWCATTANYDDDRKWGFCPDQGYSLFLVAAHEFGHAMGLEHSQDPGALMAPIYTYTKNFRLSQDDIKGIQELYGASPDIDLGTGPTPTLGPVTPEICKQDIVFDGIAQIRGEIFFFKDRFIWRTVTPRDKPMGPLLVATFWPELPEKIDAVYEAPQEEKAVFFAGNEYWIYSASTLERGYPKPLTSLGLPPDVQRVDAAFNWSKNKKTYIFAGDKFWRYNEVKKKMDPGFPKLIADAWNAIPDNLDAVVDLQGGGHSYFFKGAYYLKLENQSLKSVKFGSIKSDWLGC
Procedure: The enzymatic reaction process was monitored by HPLC at 6, 12, 24, and 72 h.
Doxorubicin hydrochloride (DOX·HCl), trifluoroacetic acid (TFA), and anhydrous N,N-Dimethylformamide (DMF) were purchased from Aladdin (Shanghai, China).
Thioanisole (TA), 1,2-ethanedithiol (EDT), and phenol were obtained from Macklin (Shanghai, China). 4-methylmorpholine (NMM), N,N’-diisopropylcarbodiimide (DIC), and 1-hydroxybenzotriazole (HOBt) were purchased from OKA (Beijing, China). Rink amide methylbenzhydrylamine (MBHA) resin, Wang resin and all Fmoc-protected amino acids were obtained from NJPeptide (Nanjing, China). Ethanol, diethyl ether, acetonitrile (ACN), and methanol were purchased from Sinopharm Chemical Reagent Co., Ltd (Shanghai, China). Piperidine, p-nitrophenol, and succinic anhydride (Succ) were obtained from Sigma-Aldrich (Shanghai, China). Recombinant human matrix metalloproteinase-2 (MMP-2) and matrix metalloproteinase-9 (MMP-9) produced by Novoprotein Scientific Inc. (Shanghai, China) are supplied as a 0.2 μm filtered buffer mixture of 20 mM Tris-HCl, 2 mM CaCl2, 150 mM NaCl, 0.05 % Brij 35 (w/v), pH 7.5, and their specific activity is >1300 pmol/min/µg as measured under the described conditions. All commercial reagents and HPLC solvents were used with […]

MDA‐MB‐231 cells = experiment: Transwell invasion assay (Matrigel); format: cell-based, human; details: MDA-MB-231, Matrigel transwell, 1 µg mL^−1 in lower chamber, 24 h, versus PBS group, n = 3
Procedure: 1 × 10^6 MDA‐MB‐231 cells were suspended on the top chambers of the transwell with Matrigel. Cells were cultured in DMEM without FBS overnight. […] After incubation for 24 h, the cells on the upper wells were cautiously erased with a cotton swab. Cells on the lower surface were fixed with 4% PFA and stained with crystal violet. After multiple washing with PBS, the cells that passed through the membrane were recorded with a microscope (DFC 450C, Leica, Germany).

[3] = test system: MDA‐MB‐231 metastasis model; experiment: Anti-metastasis evaluation, MDA-MB-231 metastasis model; format: in vivo, mouse; details: MDA-MB-231-luc i.v. model
From the text: All the animal experimental procedures were recognized and approved by the Regional Ethics Committee for Animal Experiments at Ningbo University, China (Permit NO. SYXK (Zhe) 2019‐0005). The triple‐negative breast cancer (TNBC) xenograft tumors were established on female BALB/c nude mice (≈15 g) by subcutaneous injection of MDA‐MB‐231 cells (5 × 10^6 cells in each mouse). TNBC metastasis models were constructed by injecting MDA‐MB‐231‐luc cells (1 × 10^5 cells in each mouse) through the tail vein to female BALB/c nude mice. The day that MDA‐MB‐231‐luc was injected was set as D0. In vivo imaging system (IVIS) (Lumina XRMS Ш, PerkinElmer, USA) was utilized to identify the tumor metastasis at D12.
For the TNBC metastasis model, two kinds of treatments were developed. […] After seven times of injections, continued observation of the mice was carried out. […] In vivo imaging system (IVIS Lumina XRMS Ш, PerkinElmer, USA) was utilized again to estimate the tumor metastasis at D26. Meanwhile, the mice were sacrificed and the main organs (heart, livers, spleen, lung, and kidney) were separated for histological analysis.

healthy ICR mice = experiment: Maximum tolerated dose / acute toxicity study
From the text: Animal survival of each group (n = 10, 5 female and 5 male) was continuously recorded for 14 days. Eventually, the evaluation and calculation of the median lethal dose (LD50) were completed with these collected data using the Bliss rule.

[4] = Morphological transformation / particle size by DLS and TEM in PBS of different pH; format: physicochemical; details: DLS

## CC[C@H](C)[C@H](NC(=O)[C@@H]1CCCN1C(=O)[C@H](CC(N)=O)NC(=O)[C@H](CC(N)=O)NC(=O)[C@H](Cc1ccc(O)cc1)NC(=O)[C@H](Cc1c[nH]cn1)NC(=O)[C@H](CCCNC(=N)N)NC(=O)CNC(=O)[C@H](CCCNC(=N)N)NC(=O)[C@@H](NC(=O)CNC(=O)[C@H](CC(C)C)NC(=O)[C@@H]1CCCN1C(=O)CCC(=O)N[C@H]1C[C@H](O[C@H]2C[C@](O)(C(=O)CO)Cc3c(O)c4c(c(O)c32)C(=O)c2c(OC)cccc2C4=O)O[C@@H](C)[C@H]1O)C(C)C)C(=O)N[C@@H](Cc1c[nH]c2ccccc12)C(=O)N[C@@H](CCCNC(=N)N)C(=O)N[C@@H](CCC(N)=O)C(=O)N[C@@H](CCCNC(=N)N)C(=O)N[C@@H](Cc1ccc(O)cc1)C(N)=O [DOX‐P18] ({Doxorubicin(3'-N)-Suc}-PLGVRGRHYNNPIWRQRY-NH2)
[1]
  Plasma clearance (CL) relative to DOX: 1/4
  Total plasma concentration (AUC) relative to DOX: four times higher
MCF‐7 cells
  IC50 (cytotoxicity), in words: higher
[2]
  Enzymatic cleavage by MMP-2: efficiently cleaved
MDA‐MB‐231 cells
  Inhibition on cell invasion: 50%
[3]; 25 mg kg^−1 DOX-P18 (5 mg kg^−1 DOX) seven times every 2 days from D0
  Lung metastasis, prevention schedule (histology D26): limited number
[3]; 25 mg kg^−1 DOX-P18 (5 mg kg^−1 DOX) seven times every 2 days from D14
  Lung and bone metastasis, treatment schedule (histology D26): significant metastasis inhibition
Healthy ICR mice; 14 days after single dose, 40 mg kg^−1 DOX (or DOX equivalent)
  Histological analysis of major organs: no significant differences in major organs
Healthy ICR mice; 14 days after single injection, n = 3, DOX: WBC, PLT, PCT at 10 mg kg^−1, DOX-P18: all indexes, different doses
  Blood routine indexes: not significantly different
Healthy ICR mice; LD50 in DOX equivalents versus free DOX
  Improvement of biosafety (LD50 versus DOX): 67.8%
Healthy ICR mice; single intravenous dose, 14 days, n = 10 per group, Bliss rule
  Single-dose median lethal dose (LD50): 221.5 mg/kg
[4]; PBS buffer pH 7.4
  Aggregation state (particle size distribution): nanoparticles could only be detected
[4]; PBS, neutral and weakly acidic media (pH ≤ 6.5; 6.5, 6.0, 5.0)
  Aggregation state (particle size distribution): monomolecular dispersion
